Measured values reported in publication PMC10516938, “Conformational dynamics of cohesin/Scc2 loading complex are regulated by Smc3 acetylation and ATP binding” (Nature Communications, 2023).
Residue numbers refer to the chain shown, from its start.

T1: Smc3^QQ W483R R1008I K1004C (S. cerevisiae, UniProt P47037 1-1230, K112Q | K113Q | W483R | K1004C | R1008I)
T1 construct: Smc3, S. cerevisiae; also called smc3-QQ K1004C with R1008I and W483R; source: S. cerevisiae W303, late G1 arrested cells, whole-cell extract
T1 sequence (looked up): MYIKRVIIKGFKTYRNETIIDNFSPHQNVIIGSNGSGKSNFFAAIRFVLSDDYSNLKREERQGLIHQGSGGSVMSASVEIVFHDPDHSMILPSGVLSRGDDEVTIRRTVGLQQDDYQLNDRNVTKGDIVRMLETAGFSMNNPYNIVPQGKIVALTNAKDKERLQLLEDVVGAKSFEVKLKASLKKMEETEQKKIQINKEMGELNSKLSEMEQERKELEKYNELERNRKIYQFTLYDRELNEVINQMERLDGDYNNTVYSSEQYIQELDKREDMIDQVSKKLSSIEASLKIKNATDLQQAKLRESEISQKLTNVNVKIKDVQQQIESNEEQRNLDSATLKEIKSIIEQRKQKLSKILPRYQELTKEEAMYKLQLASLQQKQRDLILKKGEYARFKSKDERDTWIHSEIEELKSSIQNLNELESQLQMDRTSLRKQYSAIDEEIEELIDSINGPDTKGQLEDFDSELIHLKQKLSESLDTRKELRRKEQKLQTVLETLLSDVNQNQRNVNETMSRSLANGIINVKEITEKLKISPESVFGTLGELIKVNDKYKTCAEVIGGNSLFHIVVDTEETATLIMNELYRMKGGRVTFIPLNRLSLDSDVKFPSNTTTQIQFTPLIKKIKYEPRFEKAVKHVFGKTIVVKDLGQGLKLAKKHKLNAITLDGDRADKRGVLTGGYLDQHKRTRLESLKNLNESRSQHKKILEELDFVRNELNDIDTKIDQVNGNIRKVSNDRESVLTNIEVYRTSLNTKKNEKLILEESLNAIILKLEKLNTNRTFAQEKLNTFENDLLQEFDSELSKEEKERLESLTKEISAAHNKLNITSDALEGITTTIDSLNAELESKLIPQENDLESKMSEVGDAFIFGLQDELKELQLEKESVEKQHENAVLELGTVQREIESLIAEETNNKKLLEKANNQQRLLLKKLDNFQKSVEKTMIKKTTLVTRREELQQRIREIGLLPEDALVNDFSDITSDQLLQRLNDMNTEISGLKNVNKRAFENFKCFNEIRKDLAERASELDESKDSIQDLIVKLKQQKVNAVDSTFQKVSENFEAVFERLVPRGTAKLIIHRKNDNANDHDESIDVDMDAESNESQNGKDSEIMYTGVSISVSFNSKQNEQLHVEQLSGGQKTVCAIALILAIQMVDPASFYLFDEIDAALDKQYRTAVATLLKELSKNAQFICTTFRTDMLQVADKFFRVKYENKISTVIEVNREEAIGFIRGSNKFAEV

T2: Smc3^QQ R1008I Q67C (S. cerevisiae, UniProt P47037 1-1230, Q67C | K112Q | K113Q | R1008I)
T2 construct: Smc3, S. cerevisiae; also called smc3-QQ Q67C with R1008I; source: S. cerevisiae W303, late G1 arrested cells, whole-cell extract
T2 sequence (looked up): T1 sequence (looked up) with Q67C, R483W, C1004K

B1: Scc2 D369C (natural protein, S. cerevisiae, UniProt Q04002 1-1493, looked up)
chain: MSYPGKDKNIPGRIIEALEDLPLSYLVPKDGLAALVNAPMRVSLPFDKTIFTSADDGRDVNINVLGTANSTTSSIKNEAEKERLVFKRPSNFTSSANSVDYVPTNFLEGLSPLAQSVLSTHKGLNDSINIEKKSEIVSRPEAKHKLESVTSNAGNLSFNDNSSNKKTKTSTGVTMTQANLAEQYLNDLKNILDIVGFDQNSAEIGNIEYWLQLPNKKFVLTTNCLTKLQMTIKNITDNPQLSNSIEITWLLRLLDVMVCNIKFSKSSLKMGLDDSMLRYIALLSTIVLFNIFLLGKNDSNLHRESYIMEPVNFLSDLIESLKILTIEYGSLKIEFDTFQEALELLPKYIRNGPFLDDNVTAKLVYIFSCLLMNNDIEATTNIQFQSFWDNVKRISSDILVSLFGSFDQQRGFIIEELLSHIEKLPTKRIQKKLRKVGNQNIYITDFTFTLMSMLENINCYSFCNQMKDIAPENIDLLKNEYKKQEEFLFNIVEHINDTILERFFKNPSALRYVIDNFVQDLLLLISSPQWPVTEKILSSLLKRLLSVYSPSMQVSANIETICLQLIGNIGSTIFDIKCSTRDHEDNNLIKMINYPETLPHFFKSFEECIAYNETIKCRRSATRFLWNLRLGTILILEEYTKDAKEQIITVDNELKKILEQIKDGGLGPELENREADFSTIKLDYFSILHAFELLNLYDPYLKLILSLLAKDKIKLRSTAIKCLSMLASKDKVILSNPMVKETIHRRLNDSSASVKDAILDLVSINSSYFEFYQQINNNYNDDSIMVRKHVLRINEKMYDETNDIVTKVYVIARILMKIEDEEDNIIDMARLILLNRWILKVHEVLDQPEKLKEISSSVLLVMSRVAIMNEKCSQLFDLFLNFYLLNKEAHSKEAYDKITHVLTILTDFLVQKIVELNSDDTNEKNSIVDKQNFLNLLAKFADSTVSFLTKDHITALYPYMVSDEKSDFHYYILQVFRCTFEKLANFKQKFLYDLETTLLSRLPKMNVREIDEAMPLIWSVATHRHDTARVAKACSSCLSHLHPYINKANNEEAAIVVDGKLQRLIYLSTGFARFCFPKPSNDKIAFLQEGETLYEHITKCLLVLSKDKITHVIRRVAVKNLTKLCGNHPKLFNSRHVLHLLDKEFQSDQLDIKLVILESLYDLFLLEERKSVRNTGVNSTLSSNSILKKKLLKTNRVEFANDGVCSALATRFLDNILQLCLLRDLKNSLVAIRLLKLILKFGYTNPSHSIPTVIALFASTSQYIRHVAYELLEDLFEKYETLVFSSLSRGVTKAIHYSIHTDEKYYYKHDHFLSLLEKLCGTGKKNGPKFFKVLKRIMQSYLDDITDLTSTNSSVQKSIFVLCTNISNITFVSQYDLVSLLKTIDLTTDRLKEVIMDEIGDNVSSLSVSEEKLSGIILIQLSLQDLGTYLLHLYGLRDDVLLLDIVEESELKNKQLPAKKPDISKFSAQLENIEQYSSNGKLLTYFRKHVKDT
notes: Scc2, S. cerevisiae; source: S. cerevisiae W303, in vivo, whole-cell extract
B2: Scc2 T1175C (natural protein, S. cerevisiae, UniProt Q04002 1-1493, looked up)
chain: B1 chain with C369D, T1175C
notes: as for B1

Tests used:
[1] = target: T1, Smc3^QQ W483R R1008I K1004C; assay: cross-linking; in vivo BMOE cross-link of cysteine pairs in yeast cells arrested in late G1 by non-degradable Sic1(9m); Scc1-PK immunoprecipitated, western blot, band intensities quantified; details: partners not purified
Smc3^QQ R1008I Q67C = target: T2, Smc3^QQ R1008I Q67C; assay: as above; details: partners not purified

Binder	crosslink relative to wild type [1] [%]	crosslink relative to wild-type Smc3 (Smc3^QQ R1008I Q67C) [%]
B1	~70	
B2		~40
